Results as given in patent publication US11413334B2, “Lysin polypeptides active against Gram-negative bacteria” (CONTRAFECT CORPORATION, priority 2015, dated 2022).
Entries after “also recorded” stand apart in the source; their conditions may differ.

Columns and labels:
[1] = tested on: PAO1 cells; experiment: Killing assay of GN4-derived peptides in Tris-HCl buffer; details: FIG. 6; compared with parent GN4 fragment
[2] = tested on: P. aeruginosa strain PAO1; type: cell-based, Pseudomonas aeruginosa; details: E. coli clones of five Micavibrio aeruginosavorus hydrolases screened
[3] = tested on: P. aeruginosa strain PAO1; experiment: Viability (CFU) assay of GN lysins in Tris-HCl buffer; details: for antibacterial activity compared with EDTA and PMB / antibacterial activity compared with HuLYS or novobiocin: lysin 25 mcg/ml, 1 hour, 37° C., 20 mM Tris-HCl pH 7.2, FIG. 4; for antibacterial activity compared with EDTA and PMB: EDTA 1 mM, PMB 25 mcg/ml; for antibacterial activity compared with HuLYS or novobiocin: HuLYZ 25 mcg/ml, novobiocin 5 mcg/ml

FGN4-2: FGN4-1 with the 11 C-terminal residues removed, 31 amino acids (NKGDYQGAADQFPRWVNAGGKRLDGLVKRRA; Pseudomonas phage PAJU2)
effect of the sequence modification on activity of the parent fragment [1]: did reduce activity

FGN4-4: FGN4-1 with a single C-terminal cysteine added (NKGDYQGAADQFPRWVNAGGKRLDGLVKRRAAERALFLEPLSC; artificially-created modified fragment of GN4 (SEQ ID NO 3))
effect of the sequence modification on activity of the parent fragment [1]: enhanced the activity of the FGN4-1

B1: GN37: 126 amino acid lysin polypeptide, peptidase M15 from Micavibrio aeruginosavorus (protein, listed as Micavibrio aeruginosavorus)
chain: MTYTLSKRSLDNLKGVHPDLVAVVHRAIQLTPVDFAVIEGLRSVSRQKELVAAGASKTMNSRHLTGHAVDLAAYVNGIRWDWPLYDAIAVAVKAAAKELGVAIVWGGDWTTFKDGPHFELDRSKYR
clearing zone on agar overlay plates [2]: yielded a clearing zone (halo) | decrease in bacterial viability ([3]; after only 1 hour of treatment): > 3 log | antibacterial activity compared with EDTA and PMB [3]: equivalent antibacterial activity; also recorded: stronger or equivalent antibacterial activity | antibacterial activity compared with HuLYS or novobiocin [3]: greater antibacterial activity

B2: GN43: 439 amino acid lysin polypeptide, peptidase M23 of Pseudomonas (protein, listed as Pseudomonas sp.)
chain: MKRTTLNLELESNTDRLLQEKDDLLPQSVTNSSDEGTPFAQVEGASDDNTAEQDSDKPGASVADADTKPVDPEWKTITVASGDTLSTVFTKAGLSTSAMHDMLTSSKDAKRFTHLKVGQEVKLKLDPKGELQALRVKQSELETIGLDKTDKGYSFKREKAQIDLHTAYAHGRITSSLFVAGRNAGLPYNLVTSLSNIFGYDIDFALDLREGDEFDVIYEQHKVNGKQVATGNILAARFVNRGKTYTAVRYTNKQGNTSYYRADGSSMRKAFIRTPVDFARISSRFSLGRRHPILNKIRAHKGVDYAAPIGTPIKATGDGKILEAGRKGGYGNAVVIQHGQRYRTIYGHMSRFAKGIRAGTSVKQGQIIGYVGMTGLATGPHLHYEFQINGRHVDPLSAKLPMADPLGGADRKRFMAQTQPMIARMDQEKKTLLALNKQR
antibacterial activity compared with HuLYS or novobiocin [3]: greater antibacterial activity

B3: GN4: 144 amino acid lysin polypeptide, putative endolysin of Pseudomonas phage PAJU2 (protein)
chain: MRTSQRGIDLIKSFEGLRLSAYQDSVGVWTIGYGTTRGVTRYMTITVEQAERMLSNDIQRFEPELDRLAKVPLNQNQWDALMSFVYNLGAANLASSTLLKLLNKGDYQGAADQFPRWVNAGGKRLDGLVKRRAAERALFLEPLS
modifications: Pseudomonas phage PAJU2
antibacterial activity compared with EDTA and PMB [3]: equivalent antibacterial activity; also recorded: stronger or equivalent antibacterial activity | antibacterial activity compared with HuLYS or novobiocin [3]: greater antibacterial activity

B4: GN14: 189 amino acid lysin polypeptide, putative endolysin of Pseudomonas phage Lu11 (protein)
chain: MNNELPWVAEARKYIGLREDTSKTSHNPKLLAMLDRMGEFSNESRAWWHDDETPWCGLFVGYCLGVAGRYVVREWYRARAWEAPQLTKLDRPAYGALVTFTRSGGGHVGFIVGKDARGNLMVLGGNQSNAVSIAPFAVSRVTGYFWPSFWRNKTAVKSVPFEERYSLPLLKSNGELSTNEA
modifications: Pseudomonas phage Lu11
antibacterial activity compared with EDTA and PMB [3]: equivalent antibacterial activity; also recorded: stronger or equivalent antibacterial activity | antibacterial activity compared with HuLYS or novobiocin [3]: greater antibacterial activity

B5: GN2: 147 amino acid lysin polypeptide, lysozyme class, from marine metagenome (protein)
chain: MKISLEGLSLIKKFEGCKLEAYKCSAGVWTIGYGHTAGVKEGDVCTQEEAEKLLRGDIFKFEEYVQDSVKVDLDQSQFDALVAWTFNLGPGNLRSSTMLKKLNNGEYESVPFEMRRWNKAGGKTLDGLIRRRQAESLLFESKEWHQV
modifications: hypothetical protein GOS_817346 [marine metagenome] (GenBank EDG23390.1)
antibacterial activity compared with HuLYS or novobiocin [3]: greater antibacterial activity
